# Source: patent publication US20090221680, “Aptamers that bind thrombin with high affinity” (published 2009)
# Experiments:
# [1] = target: T1, thrombin (endogenous, clotting assay in plasma or whole blood) (Homo sapiens, UniProt P00734;P00734 P00734:328-363,P00734:364-622); assay: inhibition; ACT at 10 uM
# [2] = target: T1, thrombin (endogenous, clotting assay in …); assay: inhibition; ACT at 10 uM aptamer
# [3] = target: T1, thrombin (endogenous, clotting assay in …); assay: inhibition; PT at 10 uM
# [4] = target: T1, thrombin (endogenous, clotting assay in …); assay: inhibition; PT at 10 uM; remark: listed apart in the source
# [5] = target: T1, thrombin (endogenous, clotting assay in …); assay: inhibition; PT at 10 uM, parent 300 s
# [6] = target: T2, thrombin (alpha-thrombin) (Homo sapiens, UniProt P00734;P00734 P00734:315-363,P00734:364-622); assay: filter; DPBS Ca2+ Mg2+, 0.1 mg/ml BSA
# prothrombin = prothrombin (Homo sapiens, UniProt P00734 P00734:44-622); assay: filter; 50 nM prothrombin; settings: tags: Athens Research
# Method in brief: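 Trace 5′-³²P-labeled RNA clones incubated ±50 nM prothrombin with 0.1 mg/ml BSA in 1×DPBS (with Ca²⁺/Mg²⁺), 30 min. Bound RNA captured on nitrocellulose, free RNA on nylon; filters quantified by phosphorimaging. Single-point screen.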
# [7] = target: thrombin (endogenous, in vivo, ACT of whole blood) (Macaca fascicularis, UniProt A0A2K5UZ51;A0A2K5UZ51 A0A2K5UZ51:325-360,A0A2K5UZ51:361-619); assay: inhibition; maximum ACT in monkey, IV bolus 0.46 umol/kg
# [8] = target: T2, thrombin (alpha-thrombin); assay: filter
# thrombin = thrombin (Sus scrofa, UniProt Q19AZ8;Q19AZ8 Q19AZ8:316-364,Q19AZ8:365-622); assay: filter; species cross-reactivity
# [9] = target: T2, thrombin (alpha-thrombin); assay: filter; DPBS Ca2+ Mg2+, 0.1 mg/ml BSA, room temp
# [10] = target: T1, thrombin (endogenous, clotting assay in …); assay: inhibition; PT at 10 uM; remark: listed apart in the source
# [11] = target: T2, thrombin (alpha-thrombin); assay: filter; NB, non binder
# [12] = target: T1, thrombin (endogenous, clotting assay in …); assay: inhibition; PT at 10 uM, instrument maximum
binder,measurement,setting,value
"ACTGCCTAGGTTGGGTAGGGTGGTGGCAGT (ssDNA, 5'-PEG 10 kDa via hexylamine) [ARC2323]",activity,[1],514 s
CTGCCTAGGTTGGGTAGGGTGGTGGCAGTTT (ssDNA) [ARC2191],activity,[2],453 s
TTTCTGCCTAGGTTGGGTAGGGTGGTGGCAGTTT (ssDNA) [ARC2195],activity,[2],438 s
TTTTTTCTGCCTAGGTTGGGTAGGGTGGTGGCAG (ssDNA) [ARC2194],activity,[2],462 s
TCCCATCTTCTGTAGCCTAGGTTGGGTAGGGTGGTGGCTGAGGATCGATC (ssDNA) [AMX(398)_H5],activity,[3],71 s
TCCCTGCTTGTCGATATTTTAGGGTTGGTGTGGGTGGCTGAGGATCGATC (ssDNA) [AMX(454)_D11],activity,[4],43.4 s
GGCCGATCAGGCTAGGTTGGGTAGGGTGGTGGCTGAGGATCGGCC (ssDNA) [Minimer 7],activity,[5],83.3 s
TTTCTGCCTAGGTTGGGTAGGGTGGTGGCAG (ssDNA) [ARC2193],activity,[2],545 s
TCCCATGATCGTTAGATTCAGGGATGGTGTGGGTGGCTGAGGATCGATC (ssDNA) [AMX(453)_G5],activity,[4],29.3 s
TTTCCTCAGGGATGGTGTGGGTGGCTGAGGTTT (ssDNA) [ARC2189],activity,[2],410 s
CTGCCTAGGTTGGGTAGGGTGGTGGCAGTTTTTT (ssDNA) [ARC2192],activity,[2],423 s
TCCCGATTGGAAAGCCTAGGATGGGTAGGGTGGTGGCTGAGGATCGATC (ssDNA) [AMX(399)_F12],Kd,[6],0.66 nM
same,activity,[3],74.9 s
same,binding signal,prothrombin,48.2 % bound
CGCCTAGGTTGGGTAGGGTGGTGGCG (ssDNA) [ARC2172],activity,[7],527 s
same,Kd,[8],0.14 nM
same,binding result,thrombin,binds
CCCGACTGATTCTTACCTTAGGGATGGTGTGGGTGGCTGAGGATCGATC (ssDNA) [AMX(454)_B9],activity,[4],32 s
TTTTTTCCTCAGGGATGGTGTGGGTGGCTGAGGTTTTTT (ssDNA) [ARC2190],activity,[2],389 s
CCGGCTAGGTTGGGTAGGGTGGTGGCTGG (ssDNA) [Minimer 11],activity,[5],27.9 s
TCCCTGCAATTCGATCAGCAGGGGTGGTGTGGGTGGCTGAGGATCGATC (ssDNA) [AMX(395)_A1],Kd,[9],6.4 nM
ACTGCCTAGGTTGGGTAGGATGGTGGCAGT (ssDNA) [ARC2169.4],activity,[10],53.8 s
"ACTGCCTAGGTUGGGTAGGGTGGTGGCAGT (XNA, 2'-OMe U12, rest DNA) [ARC2624]",binding result,[11],no binding
"CGCCTAGGTTGGGTAGGGTGGTGGCG (ssDNA, 5'-PEG 10 kDa via hexylamine) [ARC2329]",activity,[1],664 s
"CGCCTAGGTTGGGTAGGGTGGTGGCG (ssDNA, 5'-hexylamine) [ARC2324]",activity,[1],424 s
"CGCTAGGTTGGGTAGGGTGGTGCG (ssDNA, 2'-OMe at positions 1, 2, 23, 24) [ARC2949]",activity,[7],403 s
ACTGCATAGGTTGGGTAGGGTGGTGGCAGT (ssDNA) [ARC2169.7],activity,[10],300 s
GGTTGGGTAGGGTGG (ssDNA) [Minimer 3],activity,[5],25.8 s
TCCTGATCGGATGTGGTGGGTTATTGGTTTGGGTGGCTGAGGATCGATC (ssDNA) [AMX(453)_F6],activity,[12],300 s
ACTGCCTAGGTTGGGTAGGGTGGTGGCAGT (ssDNA) [ARC2169],activity,[7],542 s
same,Kd,[8],0.135 nM
ACTGCATAGGTTGGGTAGGGTGGTGCAGT (ssDNA) [ARC2169.8],activity,[10],28.7 s
TCCCCGATGTGTCAGCCTAGGGTGGTTAGGGTGGTGGCTGAGGATCGATC (ssDNA) [AMX(398)_C5],Kd,[6],2.2 nM
same,activity,[3],64.7 s
same,binding signal,prothrombin,19.2 % bound
TCCCTGCATCGAGCCTCTATGGGATGGTTTGGGTGGCTGAGGATCGATC (ssDNA) [AMX(454)_F9],activity,[4],25 s
TCCCTGGTTTCGATCTGTTTTGGTTGGTCTGGGTGGCTGAGGATCGATC (ssDNA) [AMX(454)_B12],activity,[4],21.9 s
TTTTTTCTGCCTAGGTTGGGTAGGGTGGTGGCAGTTTTTT (ssDNA) [ARC2196],activity,[2],441 s
ACTGCATAGGTTGGGTAGGGTGGTTGCAGT (ssDNA) [ARC2169.6],activity,[10],300 s
TCCCATGAACTCAGGGTAATTTTTTGGTGTGGGTGGCTGAGGATCGATC (ssDNA) [AMX(398)_D9],Kd,[6],5.64 nM
same,activity,[3],80.8 s
same,binding signal,prothrombin,41.8 % bound
TTTTTTCCTCAGGGATGGTGTGGGTGGCTGAGG (ssDNA) [ARC2188],activity,[2],426 s
TCCCATCGAGCTCAGTCTAGGATGGGTAGGGTGGTGGCTGAGGATCGATC (ssDNA) [AMX(453)_B6],activity,[12],300 s
ACTGCCTAGGGTGGGTAGGGTGGTGGCAGT (ssDNA) [ARC2169.2],activity,[10],300 s
TCCCGAGCGATACTGCCTAGGCTGGGTAGGGTGGTGGCTGAGGATCGATC (ssDNA) [AMX(398)_C10],Kd,[6],3.27 nM
same,activity,[3],58.8 s
same,binding signal,prothrombin,40.9 % bound
TCCCGAGCGATATTGCCTAGGTTGGGTAGGGTGGTGGCTGAGGATCGATC (ssDNA) [AMX(454)_F2],activity,[12],300 s
TCCCGAGGGACGACGCCTAGGTTGGGTAGGGTGGTGGCTGAGGATCGATC (ssDNA) [AMX(399)_C11],Kd,[6],1.74 nM
same,activity,[3],52.6 s
same,binding signal,prothrombin,41.6 % bound
"ACTGCCTAGGTTGGGTAGGGUGGTGGCAGT (XNA, 2'-OMe U21, rest DNA) [ARC2633]",binding result,[11],no binding
TCCCATCGATCTGGGGTAGTTTTATTGGGTTGGGTGGCTGAGGATCGATC (ssDNA) [AMX(454)_H3],activity,[4],35.4 s
ACTGCCTAGGATGGGTAGGGTGGTGGCAGT (ssDNA) [ARC2169.1],activity,[10],300 s
